Patent US20250074980A1 (BRIGHAM AND WOMEN S HOSPITAL, published 2025)
Numbering of substitutions follows the chain as printed. Numbers in names are those of the source. Where “and” joins values, the source holds several entries; their conditions need not be identical. Identical values can stand only once.

T1: His-tagged CEACAM1 (human, UniProt P13688 35-428)
T1 construct: 45 kDa SPR analyte; also called CEACAM1-HIS; CEACAM1 analyte
T1 sequence: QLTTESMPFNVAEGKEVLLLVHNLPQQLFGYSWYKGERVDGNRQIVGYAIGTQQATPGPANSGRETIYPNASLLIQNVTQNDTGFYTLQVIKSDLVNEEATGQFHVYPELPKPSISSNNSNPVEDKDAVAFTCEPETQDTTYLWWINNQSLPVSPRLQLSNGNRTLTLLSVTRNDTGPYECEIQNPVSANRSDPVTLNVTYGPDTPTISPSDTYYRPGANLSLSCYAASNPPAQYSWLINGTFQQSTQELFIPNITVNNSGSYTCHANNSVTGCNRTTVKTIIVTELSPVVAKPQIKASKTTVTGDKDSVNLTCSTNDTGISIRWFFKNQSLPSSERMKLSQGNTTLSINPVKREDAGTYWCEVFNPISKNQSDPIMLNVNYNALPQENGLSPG

T2: CEACAM6 on transfected HeLa cells (human, UniProt P40199 35-320)
T2 construct: whole, on cells; also called HeLa-CEACAM6; HeLa C6
T2 sequence (looked up): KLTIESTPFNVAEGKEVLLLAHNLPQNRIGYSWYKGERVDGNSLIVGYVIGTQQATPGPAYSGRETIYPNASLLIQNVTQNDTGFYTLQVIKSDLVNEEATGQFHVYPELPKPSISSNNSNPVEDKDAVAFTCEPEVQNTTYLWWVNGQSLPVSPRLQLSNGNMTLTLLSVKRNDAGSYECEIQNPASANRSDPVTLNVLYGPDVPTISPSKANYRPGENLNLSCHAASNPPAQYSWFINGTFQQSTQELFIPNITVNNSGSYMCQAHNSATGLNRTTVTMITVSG

T3: CEACAM8 on transfected HeLa cells (human, UniProt P31997 35-320)
T3 construct: whole, on cells; also called HeLa-CEACAM8; HeLa C8
T3 sequence (looked up): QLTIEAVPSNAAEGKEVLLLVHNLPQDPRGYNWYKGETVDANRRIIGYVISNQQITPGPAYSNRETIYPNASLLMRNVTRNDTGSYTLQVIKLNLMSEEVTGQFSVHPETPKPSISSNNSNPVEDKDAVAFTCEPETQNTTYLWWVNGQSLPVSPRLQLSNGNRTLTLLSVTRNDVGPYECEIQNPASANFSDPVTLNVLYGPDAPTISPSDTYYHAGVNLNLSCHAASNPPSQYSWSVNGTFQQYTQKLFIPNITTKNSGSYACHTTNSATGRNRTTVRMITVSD

T4: CEACAM3 on transfected HeLa cells (human, UniProt P40198 35-252)
T4 construct: whole, on cells; also called HeLa-CEACAM3; HeLa C3
T4 sequence (looked up): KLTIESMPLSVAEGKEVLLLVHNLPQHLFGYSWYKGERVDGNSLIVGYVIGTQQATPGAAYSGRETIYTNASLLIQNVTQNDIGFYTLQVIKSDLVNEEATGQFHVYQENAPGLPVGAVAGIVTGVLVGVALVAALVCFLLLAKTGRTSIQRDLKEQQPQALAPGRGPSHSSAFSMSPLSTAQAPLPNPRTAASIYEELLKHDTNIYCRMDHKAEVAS

B1: VH1/Vκ2 (antibody, IgG4, V domains shown)
VH: EVQLLESGGGLVQPGGSLRLSCAASGFIFSSHGMSWVRQAPGKGLEWVATISSGGTYTYYPDSVKGRFTISRDNSKNTLYLQMNSLKAEDTAMYYCARHDFDYDAAWFAYWGQGTLVTVSS
VL: EIVLTQSPATLSLSPGERATLSCRANSSVSYMYWYQQKPGQAPRPWIYLTSNRATGVPARFSGSGSGTDYTLTISSLEPEDFATYYCQQWSSNPPTFGQGTKLEIK
notes: IgG4 (S241P), kappa
B2: VH2/Vκ2 (antibody, IgG4, V domains shown)
VH: B1 VH with K87R
VL: B1 VL
notes: IgG4 (S241P), kappa
B3: VH3/Vκ1 (antibody, IgG4, V domains shown)
VH: B1 VH with P61A, K87R
VL: B1 VL with E1Q, T10L, L21M, R24S, Q36R, R44K, R53L, T55S, P79A
notes: IgG4 (S241P), kappa
B4: VH4/Vκ2 (antibody, IgG4, V domains shown)
VH: B1 VH with A49S, P61A, K87R, M93V
VL: B1 VL
notes: IgG4 (S241P), kappa
B5: VH1/Vκ11 (antibody, IgG4, V domains shown)
VH: B1 VH
VL: B1 VL with V57I, T84V
notes: IgG4 (S241P), kappa
B6: VH1/Vκ4 (antibody, IgG4, V domains shown)
VH: B1 VH
VL: B1 VL with V57I
notes: IgG4 (S241P), kappa
B7: VH3/Vκ2 (antibody, IgG4, V domains shown)
VH: B1 VH with P61A, K87R
VL: B1 VL
notes: IgG4 (S241P), kappa
B8: VH1/Vκ7 (antibody, IgG4, V domains shown)
VH: B1 VH
VL: B1 VL with Y70F
notes: IgG4 (S241P), kappa
B9: VH4/Vκ1 (antibody, IgG4, V domains shown)
VH: B1 VH with A49S, P61A, K87R, M93V
VL: B1 VL with E1Q, T10L, L21M, R24S, Q36R, R44K, R53L, T55S, P79A
notes: IgG4 (S241P), kappa
B10: VH2/Vκ1 (antibody, IgG4, V domains shown)
VH: B1 VH with K87R
VL: B1 VL with E1Q, T10L, L21M, R24S, Q36R, R44K, R53L, T55S, P79A
notes: IgG4 (S241P), kappa
B11: VH3/Vκ4 (antibody, IgG4, V domains shown)
VH: B1 VH with P61A, K87R
VL: B1 VL with V57I
notes: IgG4 (S241P), kappa
B12: VH2/Vκ4 (antibody, IgG4, V domains shown)
VH: B1 VH with K87R
VL: B1 VL with V57I
notes: IgG4 (S241P), kappa
B13: VH4/Vκ4 (antibody, IgG4, V domains shown)
VH: B1 VH with A49S, P61A, K87R, M93V
VL: B1 VL with V57I
notes: IgG4 (S241P), kappa

How the values were obtained:
His-tagged CEACAM1 [1] = target: T1, His-tagged CEACAM1; assay: SPR multi-cycle, IgG captured
Protocol: (§1) As an alternative approach to assess the binding of the 36 antibody combinations and the three control antibodies to CEACAM1, a kinetic analysis was performed on a Biacore T200 (serial no. 1909913) running Biacore T200 Evaluation Software V2.0.1 (Uppsala, Sweden). All experiments were run at 25° C. with HBS-P+ running buffer (pH 7.4) (GE Healthcare, cat. no. BR100671). All kinetic experiments were performed using His-tagged CEACAM1 as the analyte. For all experiments, antibodies were immobilized onto a Series S Protein A sensor chip surface. For kinetic experiments, the amount of immobilized/captured ligand was limited to avoid mass transfer effects at the surface of the chip with the surface ideally having an analyte binding level (Rₘₐₓ) of 50-150 RUs. Using a MW of 45 kDa for the CEACAM1 analyte, 150 kDa for the antibody ligand (estimated value for IgG), 50 RU for Rmax and the stoichiometry (Sm) as 2 due to the ability of each antibody to bind 2 target molecules, a target response level of ˜75 RUs was set for capture of all the sample antibodies.
The signal from the reference channel Fc1 was subtracted from that of Fc2, Fc3 and Fc4 to correct for differences in non-specific binding to a reference surface, a global Rmax parameter was used in the 1-to-1 binding model. The relative Kp compared to […] was calculated by dividing the Kp of the humanized CEACAM antibody variants by that of the chimeric antibody VH0/Vκ0 on the same chip. A summary of the averaged relative Kp obtained for the 12 antibody combinations analyzed using multi cycle kinetics can be found in Table 5.

[2] = target: T2, CEACAM6 on transfected HeLa cells; assay: flow cytometry, HeLa-CEACAM6 transfectants, % positive cells
Protocol: Binding selectivity for CEACAM1 was tested for the 24 humanized antibody variants that bound to CEACAM1 (see Table 3), as well as the chimeric control antibody VH0/Vκ0, by flow cytometry on HeLa cells transfected with CEACAM1, 3, 5, 6 and 8. […] There was no evidence of any staining of the HeLa-CEACAM3 or HeLa-CEACAM8 transfectants. […] Due to its favorable affinity to and selectivity for CEACAM1 as well as its favorable expression level, VH1/Vκ8 was chosen as the framework for affinity maturation.

[3] = target: T3, CEACAM8 on transfected HeLa cells; assay: flow cytometry, transfected HeLa
Summary of the method: (§2)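 Binding selectivity was assessed by flow cytometry and is expressed as the staining of each HeLa transfectant, each stably carrying a single CEACAM family member. The cells were kept at 37° C, 5.0% CO₂ in DMEM containing 10% fetal bovine serum. Staining used the test antibody followed by a fluorochrome-conjugated isotype-specific secondary antibody, and DAPI marked viability.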

[4] = target: T4, CEACAM3 on transfected HeLa cells; assay: flow cytometry, transfected HeLa
Summary of the method: as §2

His-tagged CEACAM1 [5] = target: T1, His-tagged CEACAM1; assay: SPR single-cycle, IgG captured
Protocol: as §1
Single cycle analysis of the 36 antibody combinations and the three control antibodies was performed on purified antibodies (Vκ1 to Vκ6 variants) or on the supernatants of the transiently transfected HEK EBNA cells (Vκ7 to Vκ12 variants). In some instances, where supernatant was not available, purified chimeric antibody VH0/Vκ0 was spiked into HEK EBNA culture medium to use as a positive control. Antibodies were diluted in HBS-P+ to a concentration of 1 μg/ml (as determined by an IgG quantitation ELISA). At the start of each cycle, antibodies were loaded onto Fc2, Fc3 and Fc4 of a protein A chip and IgG captured at a flow rate of 8 μl/min to give an RU of ˜75. The surface was then allowed to stabilize. Single cycle kinetic data was obtained at a flow rate of 50 μl/min to minimize any potential mass transfer effects. Multiple repeats of the chimeric antibody VH0/Vκ0 were performed to check the stability of the surface and analyte over the kinetic cycles. The signal from the reference channel Fc1 (no antibody) was subtracted from that of Fc2, Fc3 and Fc4 to correct for differences in non-specific binding to a reference surface. A 5 point 2-fold dilution range from 3.125 to 50 nM CEACAM1 without regeneration between each concentration was used.

| Binder | Kd (His-tagged CEACAM1 [1]) | average relative KD to VH0/Vκ0 (His-tagged CEACAM1 [1]) | koff (His-tagged CEACAM1 [1]) | kon (His-tagged CEACAM1 [1]) | relative KD to VH0/Vκ0 (His-tagged CEACAM1 [1]) | binding result [2] | binding result [3] | binding result [4] | Kd (His-tagged CEACAM1 [5]) [nM] | relative KD to VH0/Vκ0 (His-tagged CEACAM1 [5]) |
| --- | --- | --- | --- | --- | --- | --- | --- | --- | --- | --- |
| B1 | 190 nM | 3.4 | 0.0503 s⁻¹ | 265000 M⁻¹ s⁻¹ | 3.4 | no binding | no binding | no binding | 134 | 3.2 |
| B2 | – | – | – | – | – | no binding | no binding | no binding | 98 | 2.3 |
| B3 | – | – | – | – | – | no binding | no binding | no binding | 135 | 3.2 |
| B4 | – | – | – | – | – | no binding | no binding | no binding | 74 | 1.8 |
| B5 | – | – | – | – | – | no binding | no binding | no binding | 143 | 3.5 |
| B6 | – | – | – | – | – | no binding | no binding | no binding | 131 | 3.1 |
| B7 | – | – | – | – | – | no binding | no binding | no binding | 103 | 2.5 |
| B8 | 119 nM and 69 nM | 2 | 0.0492 s⁻¹ and 0.0352 s⁻¹ | 415000 M⁻¹ s⁻¹ and 510000 M⁻¹ s⁻¹ | – | no binding | no binding | no binding | 109 | 2.6 |
| B9 | – | – | – | – | – | no binding | no binding | no binding | 99 | 2.4 |
| B10 | – | – | – | – | – | no binding | no binding | no binding | 113 | 2.7 |
| B11 | – | – | – | – | – | no binding | no binding | no binding | 81 | 1.9 |
| B12 | – | – | – | – | – | no binding | no binding | no binding | 103 | 2.5 |
| B13 | – | – | – | – | – | no binding | no binding | no binding | 120 | 2.9 |
